Data published in patent publication US20250277048A1 (Regeneron, published 2025).

Tests used:
[1] = target: T1, human CD40 (hCD40) expressed on cells (human, UniProt P25942 21-277); test: cell-based or functional assay
[2] = target: T1, human CD40 (hCD40) expressed on cells; test: cell-based or functional assay; remark: listed apart in the source
[3] = target: T1, human CD40 (hCD40) expressed on cells; test: flow cytometry, HEK293/D9/hCD40 cells
Experimental: (§1) Cells were washed with 2% FBS (w/v) in 1×PBS (flow cytometry staining buffer) by centrifugation with benchtop Centrifuge 5810R (Eppendorf®, Hamburg, Germany). Cells were incubated for 30 minutes at 4° C. with serial dilutions of following antibodies ranging from 1.7 pM to 100 nM in flow cytometry staining buffer (1) anti-CD40×CD40 bispecific antibodies, or (2) parental anti-CD40 antibodies (bivalent antibodies comprising 2 fragment antigen-binding [Fab] arms identical to one of the two anti-CD40 Fab of bispecific anti-CD40×CD40 antibodies), or (3) anti-CD40×Irrelevant antibodies (bivalent antibodies that incorporate one Fab arm identical to one of anti-CD40 Fab of anti-CD40×CD40 antibodies and another Fab arm specific to an irrelevant antigen, i.e. birch pollen main allergen Bet v1), or (4) human IgG4 isotype control antibodies with Fc mutation. After washing, cell bound antibodies were detected with 2.5 μg/ml Allophycocyanin (APC)-conjugated goat anti-human IgG antibody specific for the Fcγ fragment (Jackson Immunoresearch, West Grove, PA) for 30 minutes at 4° C. Cells were washed and subsequently fixed with 50% solution of Cytofix™ Fixation Buffer (BD, Franklin Lakes, NJ) in flow cytometry staining buffer for 20 minutes at room temperature. Cells were washed and resuspended in flow cytometry staining buffer and stored at 4° C. for downstream flow cytometry analysis.
(§2) Acquisition of fluorescence signals were recorded on the ZE5 Cell Analyzer (Bio-Rad, Hercules, CA) according to the manufacturer's recommended procedure and flow cytometry data analysis was performed using the open-source R packages flowCore, flowStats, flowDensity, ggCyto, and flowAI. Multiplexed samples were deconvoluted and individual cell populations were identified based on their unique CellTrace™ fluorescence signature. APC Median Fluorescence intensity (MFI) was recorded to indicate the binding intensity of each antibody over a range of concentrations. Antibodies with MFI greater than 1500 at the highest tested concentration (100 nM) were classified as specific binders. In addition, direct binding signals (APC MFI) were analyzed as a function of the antibody concentration and data were fitted with a sigmoidal (four-parameter logistic) dose-response model using GraphPad Prism™ software.

[4] = target: T1, human CD40 (hCD40) expressed on cells; test: cell-based or functional assay; remark: listed apart in the source
[5] = target: T1, human CD40 (hCD40) expressed on cells; test: cell-based or functional assay; remark: listed apart in the source
[6] = target: T1, human CD40 (hCD40) expressed on cells; test: cell-based or functional assay; remark: listed apart in the source
[7] = target: T1, human CD40 (hCD40) expressed on cells; test: cell-based or functional assay; remark: listed apart in the source
[8] = target: T2, Macaca fascicularis CD40 (mfCD40) expressed on HEK293/D9/mfCD40 cells (Macaca fascicularis, UniProt G7PG38 21-278); test: flow cytometry, HEK293/D9/mfCD40 cells
T2 construct: whole, on cells; also called monkey CD40
Experimental: as §1, §2

[9] = target: T3, human CD40 extracellular domain expressed with a C-terminal myc-myc-hexahistidine tag (human); test: ELISA blocking of 40 nM hCD40-mmH binding to 9His-hCD40L
T3 construct: also called hCD40-MMH; hCD40-mmH
From the text: An ELISA-based blocking assay was developed to determine the ability of C40×CD40 bispecific antibodies to block the binding of the hCD40 monomer to plate-coated hCD40L. The recombinant human CD40-mmH protein (hCD40-MMH; REGN3094; SEQ ID NO: 53) used in the experiments comprises a portion of the human CD40 extracellular domain (amino acids P20-R193) fused to 2×Myc peptide and 6×histadine (SEQ ID NO: 1110) at the C-terminus of human CD40, and the human CD40L (accession #NM_000074.2) with amino acids E108-L261 of the extracellular domain with 9×His-2×(SGGG)-IGER at the N-terminus (9His-hCD40L) was commercially obtained from Biolegend.
In the blocking assay, 9His-hCD40L was passively absorbed at a concentration of 5 μg/mL in PBS on a 96-well microtiter plate overnight at 4° C. […] In a separate 96-well microtiter plate, a fixed amount of 40 nM hCD40-mmH was pre-mixed with one of the following antibodies, at concentrations ranging from 977 pM to 1 μM in PBS+0.5% BSA: (1) CD40×CD40 bispecific antibodies (REGN16431, REGN16432, REGN16634, and REGN16335); (2) parental CD40 mAbs (bivalent antibodies comprising 2 fragment antigen-binding [Fab] arms identical to one of anti-CD40 Fab of CD40×CD40 antibodies); (3) CD40×Irrelevant antibodies (bivalent antibodies that incorporate one Fab arm identical to one of anti-CD40 Fab of CD40×CD40 antibodies and another Fab arm specific to an irrelevant antigen); and (4) human IgG4 with Fc mutation isotype control antibodies (REGN7540 and REGN4513). The fixed concentration of hCD40-mmH was selected to be near the concentration (EC₅₀ value) that generated 50% of the maximal binding to the plate-adhered 9His-hCD40L. After one-hour incubation, the antibody-antigen complexes were transferred to the microtiter plate coated with 9His-hCD40L. After one hour incubation at room temperature, the plates were washed, and plate-bound hCD40-mmH protein was detected with horseradish peroxidase (HRP) conjugated goat anti-c-Myc antibody. The plates were then developed using TMB substrate solution (BD Biosciences) according to the manufacturer's recommended procedure and the absorbance at 450 nm (OD₄₅₀) was measured on a SpectraMax i3×plate reader.

[10] = target: T1, human CD40 (hCD40) expressed on cells; test: cell-based or functional assay; remark: listed apart in the source
[11] = target: T1, human CD40 (hCD40) expressed on cells; test: cell-based or functional assay; remark: listed apart in the source
[12] = target: T1, human CD40 (hCD40) expressed on cells; test: flow cytometry, Ramos 2G6.4C10 cells
Experimental: as §1, §2

[13] = target: T1, human CD40 (hCD40) expressed on cells; test: cell-based or functional assay; remark: listed apart in the source

T1 sequence (P25942 21-277): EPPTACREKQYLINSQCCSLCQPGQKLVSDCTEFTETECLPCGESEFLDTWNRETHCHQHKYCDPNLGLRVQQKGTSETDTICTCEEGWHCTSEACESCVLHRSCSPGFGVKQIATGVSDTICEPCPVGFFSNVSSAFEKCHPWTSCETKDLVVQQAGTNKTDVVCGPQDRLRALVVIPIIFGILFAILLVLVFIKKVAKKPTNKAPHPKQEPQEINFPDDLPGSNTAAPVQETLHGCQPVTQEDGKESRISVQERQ
T3 sequence (chain, as listed by the source limits assumed): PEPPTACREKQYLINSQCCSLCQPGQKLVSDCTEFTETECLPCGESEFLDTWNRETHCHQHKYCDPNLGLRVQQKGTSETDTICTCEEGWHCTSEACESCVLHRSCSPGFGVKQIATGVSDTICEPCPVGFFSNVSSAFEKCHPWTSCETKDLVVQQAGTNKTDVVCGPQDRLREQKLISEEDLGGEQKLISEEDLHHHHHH

B1: REGN16335 (bispecific antibody, human IgG4 S228P, kappa)
heavy 1: EVQLVESGGGLVQPGGSLRLSCAASGFTFSSYAMNWVRQAPGKGLEWVSIISGTIGKTYYADSVKGRFTISRDNSKNTLYLQMNSLRGEDTAVYYCAKDTERDITGSPFDYWGQGTLVTVSSASTKGPSVFPLAPCSRSTSESTAALGCLVKDYFPEPVTVSWNSGALTSGVHTFPAVLQSSGLYSLSSVVTVPSSSLGTKTYTCNVDHKPSNTKVDKRVESKYGPPCPPCPAPGGGGPSVFLFPPKPKDTLMISRTPEVTCVVVDVSQEDPEVQFNWYVDGVEVHNAKTKPREEQFNSTYRVVSVLTVLHQDWLNGKEYKCKVSNKGLPSSIEKTISKAKGQPREPQVYTLPPSQEEMTKNQVSLTCLVKGFYPSDIAVEWESNGQPENNYKTTPPVLDSDGSFFLYSRLTVDKSRWQEGNVFSCSVMHEALHNHYTQKSLSLSLGK
heavy 2: EVQLVESGGGLVQPGGSLRLSCAASGFTFGSYGMAWVRQAPGKGLEWVSAISGSGDYTNYADSVKRRFTISRDNSKNTLYLQMSSLRAEDTAVYYCAKEKTGTTGYLYSGMDVWGQGTTVTVSSASTKGPSVFPLAPCSRSTSESTAALGCLVKDYFPEPVTVSWNSGALTSGVHTFPAVLQSSGLYSLSSVVTVPSSSLGTKTYTCNVDHKPSNTKVDKRVESKYGPPCPPCPAPGGGGPSVFLFPPKPKDTLMISRTPEVTCVVVDVSQEDPEVQFNWYVDGVEVHNAKTKPREEQFNSTYRVVSVLTVLHQDWLNGKEYKCKVSNKGLPSSIEKTISKAKGQPREPQVYTLPPSQEEMTKNQVSLTCLVKGFYPSDIAVEWESNGQPENNYKTTPPVLDSDGSFFLYSRLTVDKSRWQEGNVFSCSVMHEALHNRFTQKSLSLSPGK
light: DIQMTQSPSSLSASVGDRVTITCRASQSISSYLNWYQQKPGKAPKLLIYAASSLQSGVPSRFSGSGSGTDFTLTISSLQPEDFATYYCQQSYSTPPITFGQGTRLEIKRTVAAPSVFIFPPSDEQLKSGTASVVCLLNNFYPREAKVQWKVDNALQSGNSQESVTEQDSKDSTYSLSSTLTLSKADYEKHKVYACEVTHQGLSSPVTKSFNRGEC
notes: D1 arm from 30027P2, D2 arm from 21520P2, common light chain; also called CD40xCD40 (30027 x 21520)
- IC50, 900 pM hCD40L, Raji NFkB-luc [1]: 4.94e-11 M
- Max % activation, no ligand, Raji NFkB-luc [1]: 9%
- Max % inhibition, 900 pM hCD40L, Raji NFkB-luc [1]: 102%
- % max blockade relative to no mAb, IL-10, donor 1 [2]: 78.5%
- % max blockade relative to no mAb, IL-10, donor 2 [2]: 93.6%
- % max blockade relative to no mAb, IL-10, donor 3 [2]: 89.8%
- EC50 [3]: 1.6 nM
- MFI at 100 nM [3]: 28900 MFI
- IC50, 10 nM hCD40L, THP-1 NFkB-luc [4]: 0.221 nM
- Max % activation, no ligand, THP-1 NFkB-luc [4]: 3%
- Max % inhibition, 10 nM hCD40L, THP-1 NFkB-luc [4]: 98%
- % max blockade relative to no mAb, IL-6, assay #2 donor 1 [5]: 88.4%
- % max blockade relative to no mAb, IL-6, assay #2 donor 2 [5]: 87%
- % max blockade relative to no mAb, TNFa, assay #2 donor 1 [6]: 62.4%
- % max blockade relative to no mAb, TNFa, assay #2 donor 2 [6]: 52.5%
- % max blockade relative to no mAb, TNFa, donor 1 [7]: 45%
- % max blockade relative to no mAb, TNFa, donor 2 [7]: 64.7%
- % max blockade relative to no mAb, TNFa, donor 3 [7]: 61.6%
- EC50 [8]: 2.4 nM
- MFI at 100 nM [8]: 47300 MFI
- % Blocking at 1 uM mAb [9]: 96%
- IC50 [9]: 32 nM
- % max blockade relative to no mAb, IL-10, assay #2 donor 1 [10]: 88.5%
- % max blockade relative to no mAb, IL-10, assay #2 donor 2 [10]: 87.8%
- % max blockade relative to no mAb, IL-6, donor 1 [11]: 83.2%
- % max blockade relative to no mAb, IL-6, donor 2 [11]: 91.4%
- % max blockade relative to no mAb, IL-6, donor 3 [11]: 91.4%
- EC50 [12]: 1 nM
- MFI at 100 nM [12]: 3750 MFI
- IC50, 500 pM hCD40L, Ramos NFkB-luc [13]: 3.86e-11 M
- Max % activation, no ligand, Ramos NFkB-luc [13]: 5%
- Max % inhibition, 500 pM hCD40L, Ramos NFkB-luc [13]: 93%
